Measurements taken from patent US20210388087A1 (Chugai, published 2021).

What follows are binders tested against T1, Human CD137 ECD (human) (assay: Biacore SPR, vs parent H183/L072).
T1 construct: entry includes C-terminal His-tag and biotin acceptor peptide; also called human CD137 extracellular domain; 4-1BB
T1 sequence (chain, as listed by the source limits assumed): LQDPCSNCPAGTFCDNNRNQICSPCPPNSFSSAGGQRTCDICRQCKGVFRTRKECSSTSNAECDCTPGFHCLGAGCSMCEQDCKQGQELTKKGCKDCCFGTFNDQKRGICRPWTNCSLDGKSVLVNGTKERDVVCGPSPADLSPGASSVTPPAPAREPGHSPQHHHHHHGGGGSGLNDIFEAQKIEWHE

Binder	fold change of affinity [fold]
H183/L072 VL T97S (antibody, name in Kabat numbering, V domains shown, Dual-Ig) VH: QVQLVESGGGLVQPGRSLRLSCAASGFTFSNAWMHWVRQAPGKGLEWVAQIKDKGNAYAAYYAPSVKGRFTISRDDSKNSIYLQMNSLKTEDTAVYYCHYVHYASASTVLPAFGVDAWGQGTTVTVSS VL: DIVMTQSPLSLPVTPGEPASISCQASQELVHMNRNTYLHWYQQKPGQAPRLLIYKVSNRFPGVPDRFSGSGSGTDFTLKISRVEAEDVGVYYCAQGTSVPFSFGQGTKLEIK	0.8
H183/L072 VL V27cR (antibody, name in Kabat numbering, V domains shown, Dual-Ig) VH: QVQLVESGGGLVQPGRSLRLSCAASGFTFSNAWMHWVRQAPGKGLEWVAQIKDKGNAYAAYYAPSVKGRFTISRDDSKNSIYLQMNSLKTEDTAVYYCHYVHYASASTVLPAFGVDAWGQGTTVTVSS VL: DIVMTQSPLSLPVTPGEPASISCQASQELRHMNRNTYLHWYQQKPGQAPRLLIYKVSNRFPGVPDRFSGSGSGTDFTLKISRVEAEDVGVYYCAQGTSVPFTFGQGTKLEIK	0.9
H183/L072 VL T97V (antibody, name in Kabat numbering, V domains shown, Dual-Ig) VH: QVQLVESGGGLVQPGRSLRLSCAASGFTFSNAWMHWVRQAPGKGLEWVAQIKDKGNAYAAYYAPSVKGRFTISRDDSKNSIYLQMNSLKTEDTAVYYCHYVHYASASTVLPAFGVDAWGQGTTVTVSS VL: DIVMTQSPLSLPVTPGEPASISCQASQELVHMNRNTYLHWYQQKPGQAPRLLIYKVSNRFPGVPDRFSGSGSGTDFTLKISRVEAEDVGVYYCAQGTSVPFVFGQGTKLEIK	1
H183/L072 VL T97W (antibody, name in Kabat numbering, V domains shown, Dual-Ig) VH: QVQLVESGGGLVQPGRSLRLSCAASGFTFSNAWMHWVRQAPGKGLEWVAQIKDKGNAYAAYYAPSVKGRFTISRDDSKNSIYLQMNSLKTEDTAVYYCHYVHYASASTVLPAFGVDAWGQGTTVTVSS VL: DIVMTQSPLSLPVTPGEPASISCQASQELVHMNRNTYLHWYQQKPGQAPRLLIYKVSNRFPGVPDRFSGSGSGTDFTLKISRVEAEDVGVYYCAQGTSVPFWFGQGTKLEIK	0.1
H183/L072 VL V27cN (antibody, name in Kabat numbering, V domains shown, Dual-Ig) VH: QVQLVESGGGLVQPGRSLRLSCAASGFTFSNAWMHWVRQAPGKGLEWVAQIKDKGNAYAAYYAPSVKGRFTISRDDSKNSIYLQMNSLKTEDTAVYYCHYVHYASASTVLPAFGVDAWGQGTTVTVSS VL: DIVMTQSPLSLPVTPGEPASISCQASQELNHMNRNTYLHWYQQKPGQAPRLLIYKVSNRFPGVPDRFSGSGSGTDFTLKISRVEAEDVGVYYCAQGTSVPFTFGQGTKLEIK	0.5
H183/L072 VL V27cA (antibody, name in Kabat numbering, V domains shown, Dual-Ig) VH: QVQLVESGGGLVQPGRSLRLSCAASGFTFSNAWMHWVRQAPGKGLEWVAQIKDKGNAYAAYYAPSVKGRFTISRDDSKNSIYLQMNSLKTEDTAVYYCHYVHYASASTVLPAFGVDAWGQGTTVTVSS VL: DIVMTQSPLSLPVTPGEPASISCQASQELAHMNRNTYLHWYQQKPGQAPRLLIYKVSNRFPGVPDRFSGSGSGTDFTLKISRVEAEDVGVYYCAQGTSVPFTFGQGTKLEIK	0.5
H183/L072 VL V27cS (antibody, name in Kabat numbering, V domains shown, Dual-Ig) VH: QVQLVESGGGLVQPGRSLRLSCAASGFTFSNAWMHWVRQAPGKGLEWVAQIKDKGNAYAAYYAPSVKGRFTISRDDSKNSIYLQMNSLKTEDTAVYYCHYVHYASASTVLPAFGVDAWGQGTTVTVSS VL: DIVMTQSPLSLPVTPGEPASISCQASQELSHMNRNTYLHWYQQKPGQAPRLLIYKVSNRFPGVPDRFSGSGSGTDFTLKISRVEAEDVGVYYCAQGTSVPFTFGQGTKLEIK	0.3
H183/L072 VL V27cH (antibody, name in Kabat numbering, V domains shown, Dual-Ig) VH: QVQLVESGGGLVQPGRSLRLSCAASGFTFSNAWMHWVRQAPGKGLEWVAQIKDKGNAYAAYYAPSVKGRFTISRDDSKNSIYLQMNSLKTEDTAVYYCHYVHYASASTVLPAFGVDAWGQGTTVTVSS VL: DIVMTQSPLSLPVTPGEPASISCQASQELHHMNRNTYLHWYQQKPGQAPRLLIYKVSNRFPGVPDRFSGSGSGTDFTLKISRVEAEDVGVYYCAQGTSVPFTFGQGTKLEIK	0.6
H183/L072 VL V27cK (antibody, name in Kabat numbering, V domains shown, Dual-Ig) VH: QVQLVESGGGLVQPGRSLRLSCAASGFTFSNAWMHWVRQAPGKGLEWVAQIKDKGNAYAAYYAPSVKGRFTISRDDSKNSIYLQMNSLKTEDTAVYYCHYVHYASASTVLPAFGVDAWGQGTTVTVSS VL: DIVMTQSPLSLPVTPGEPASISCQASQELKHMNRNTYLHWYQQKPGQAPRLLIYKVSNRFPGVPDRFSGSGSGTDFTLKISRVEAEDVGVYYCAQGTSVPFTFGQGTKLEIK	0.9
H183/L072 VL V27cE (antibody, name in Kabat numbering, V domains shown, Dual-Ig) VH: QVQLVESGGGLVQPGRSLRLSCAASGFTFSNAWMHWVRQAPGKGLEWVAQIKDKGNAYAAYYAPSVKGRFTISRDDSKNSIYLQMNSLKTEDTAVYYCHYVHYASASTVLPAFGVDAWGQGTTVTVSS VL: DIVMTQSPLSLPVTPGEPASISCQASQELEHMNRNTYLHWYQQKPGQAPRLLIYKVSNRFPGVPDRFSGSGSGTDFTLKISRVEAEDVGVYYCAQGTSVPFTFGQGTKLEIK	0.7
H183/L072 VL V27cT (antibody, name in Kabat numbering, V domains shown, Dual-Ig) VH: QVQLVESGGGLVQPGRSLRLSCAASGFTFSNAWMHWVRQAPGKGLEWVAQIKDKGNAYAAYYAPSVKGRFTISRDDSKNSIYLQMNSLKTEDTAVYYCHYVHYASASTVLPAFGVDAWGQGTTVTVSS VL: DIVMTQSPLSLPVTPGEPASISCQASQELTHMNRNTYLHWYQQKPGQAPRLLIYKVSNRFPGVPDRFSGSGSGTDFTLKISRVEAEDVGVYYCAQGTSVPFTFGQGTKLEIK	0.7
H183/L072 VL V27cW (antibody, name in Kabat numbering, V domains shown, Dual-Ig) VH: QVQLVESGGGLVQPGRSLRLSCAASGFTFSNAWMHWVRQAPGKGLEWVAQIKDKGNAYAAYYAPSVKGRFTISRDDSKNSIYLQMNSLKTEDTAVYYCHYVHYASASTVLPAFGVDAWGQGTTVTVSS VL: DIVMTQSPLSLPVTPGEPASISCQASQELWHMNRNTYLHWYQQKPGQAPRLLIYKVSNRFPGVPDRFSGSGSGTDFTLKISRVEAEDVGVYYCAQGTSVPFTFGQGTKLEIK	0.7
H183/L072 VL V27cI (antibody, name in Kabat numbering, V domains shown, Dual-Ig) VH: QVQLVESGGGLVQPGRSLRLSCAASGFTFSNAWMHWVRQAPGKGLEWVAQIKDKGNAYAAYYAPSVKGRFTISRDDSKNSIYLQMNSLKTEDTAVYYCHYVHYASASTVLPAFGVDAWGQGTTVTVSS VL: DIVMTQSPLSLPVTPGEPASISCQASQELIHMNRNTYLHWYQQKPGQAPRLLIYKVSNRFPGVPDRFSGSGSGTDFTLKISRVEAEDVGVYYCAQGTSVPFTFGQGTKLEIK	1
H183/L072 VL V27cM (antibody, name in Kabat numbering, V domains shown, Dual-Ig) VH: QVQLVESGGGLVQPGRSLRLSCAASGFTFSNAWMHWVRQAPGKGLEWVAQIKDKGNAYAAYYAPSVKGRFTISRDDSKNSIYLQMNSLKTEDTAVYYCHYVHYASASTVLPAFGVDAWGQGTTVTVSS VL: DIVMTQSPLSLPVTPGEPASISCQASQELMHMNRNTYLHWYQQKPGQAPRLLIYKVSNRFPGVPDRFSGSGSGTDFTLKISRVEAEDVGVYYCAQGTSVPFTFGQGTKLEIK	0.9
H183/L072 VL V27cD (antibody, name in Kabat numbering, V domains shown, Dual-Ig) VH: QVQLVESGGGLVQPGRSLRLSCAASGFTFSNAWMHWVRQAPGKGLEWVAQIKDKGNAYAAYYAPSVKGRFTISRDDSKNSIYLQMNSLKTEDTAVYYCHYVHYASASTVLPAFGVDAWGQGTTVTVSS VL: DIVMTQSPLSLPVTPGEPASISCQASQELDHMNRNTYLHWYQQKPGQAPRLLIYKVSNRFPGVPDRFSGSGSGTDFTLKISRVEAEDVGVYYCAQGTSVPFTFGQGTKLEIK	0.3
H183/L072 VL V27cF (antibody, name in Kabat numbering, V domains shown, Dual-Ig) VH: QVQLVESGGGLVQPGRSLRLSCAASGFTFSNAWMHWVRQAPGKGLEWVAQIKDKGNAYAAYYAPSVKGRFTISRDDSKNSIYLQMNSLKTEDTAVYYCHYVHYASASTVLPAFGVDAWGQGTTVTVSS VL: DIVMTQSPLSLPVTPGEPASISCQASQELFHMNRNTYLHWYQQKPGQAPRLLIYKVSNRFPGVPDRFSGSGSGTDFTLKISRVEAEDVGVYYCAQGTSVPFTFGQGTKLEIK	0.6
H183/L072 VL V27cG (antibody, name in Kabat numbering, V domains shown, Dual-Ig) VH: QVQLVESGGGLVQPGRSLRLSCAASGFTFSNAWMHWVRQAPGKGLEWVAQIKDKGNAYAAYYAPSVKGRFTISRDDSKNSIYLQMNSLKTEDTAVYYCHYVHYASASTVLPAFGVDAWGQGTTVTVSS VL: DIVMTQSPLSLPVTPGEPASISCQASQELGHMNRNTYLHWYQQKPGQAPRLLIYKVSNRFPGVPDRFSGSGSGTDFTLKISRVEAEDVGVYYCAQGTSVPFTFGQGTKLEIK	0.4
H183/L072 VL V27cL (antibody, name in Kabat numbering, V domains shown, Dual-Ig) VH: QVQLVESGGGLVQPGRSLRLSCAASGFTFSNAWMHWVRQAPGKGLEWVAQIKDKGNAYAAYYAPSVKGRFTISRDDSKNSIYLQMNSLKTEDTAVYYCHYVHYASASTVLPAFGVDAWGQGTTVTVSS VL: DIVMTQSPLSLPVTPGEPASISCQASQELLHMNRNTYLHWYQQKPGQAPRLLIYKVSNRFPGVPDRFSGSGSGTDFTLKISRVEAEDVGVYYCAQGTSVPFTFGQGTKLEIK	0.8
H183/L072 VL V27cQ (antibody, name in Kabat numbering, V domains shown, Dual-Ig) VH: QVQLVESGGGLVQPGRSLRLSCAASGFTFSNAWMHWVRQAPGKGLEWVAQIKDKGNAYAAYYAPSVKGRFTISRDDSKNSIYLQMNSLKTEDTAVYYCHYVHYASASTVLPAFGVDAWGQGTTVTVSS VL: DIVMTQSPLSLPVTPGEPASISCQASQELQHMNRNTYLHWYQQKPGQAPRLLIYKVSNRFPGVPDRFSGSGSGTDFTLKISRVEAEDVGVYYCAQGTSVPFTFGQGTKLEIK	0.8
H183/L072 VL V27cP (antibody, name in Kabat numbering, V domains shown, Dual-Ig) VH: QVQLVESGGGLVQPGRSLRLSCAASGFTFSNAWMHWVRQAPGKGLEWVAQIKDKGNAYAAYYAPSVKGRFTISRDDSKNSIYLQMNSLKTEDTAVYYCHYVHYASASTVLPAFGVDAWGQGTTVTVSS VL: DIVMTQSPLSLPVTPGEPASISCQASQELPHMNRNTYLHWYQQKPGQAPRLLIYKVSNRFPGVPDRFSGSGSGTDFTLKISRVEAEDVGVYYCAQGTSVPFTFGQGTKLEIK	0.5
